In US11319551B2, “Methods and compositions for PPO herbicide tolerance in plants” (Monsanto Technology LLC, priority 2015, dated 2022):
Where a chain is given by its changes, count along the chain named.

B1: R2N90: microbial HemY protoporphyrinogen oxidase, SEQ ID NO:4 (protein, listed as Bacillus pumilus)
chain: MHDNQKHLVIIGGGITGLAAAFYLEKEVEEKGLPIQISLIEASPRLGGKIQTLYKDGYIIERGPDSFLERKVSGPQLAKDVGLSDQLVNNETGQAYVLVNEKLHPMPKGAVMGIPTQISPFITTGLFSVAGKARAAMDFVLPKSKQTEDQSLGEFFRRRVGDEVVENLIEPLLSGIYAGDIDRLSLMSTFPQFYQTEQQHRSLILGMKKSQQHAKAQQVTAKKQGQFQTINQGLQSLVEAVEGKLKLTTVYKGTKVKQIEKTDGGYGLQLDSGQTLFADSAIVTTPHQSIYSMFPKEAGLEYLHDMTSTSVATVALGFKDEDVHNEYDGTGFVISRNSDFSITACTWTNKKWPHTAPKGKTLLRAYVGKAGDESIVEQSDSQIVSIVLEDLKKIMDIKADPELTTVTRWKTSMPQYHVGHQKAISNMRETFKQSYPGVYITGAAFEGVGIPDCIDQGKAAISEAVSYLFS
B2: R2N100: microbial HemY protoporphyrinogen oxidase, SEQ ID NO:5 (protein, listed as Bacillus pumilus)
chain: B1 chain with K102T, Q199K, S236A, G243S, V250I, L268V, F277L, D320E, S381H

Tests used:
[1] = PPO enzyme assay, apparent Km for substrate; type: biochemical; conditions: substrate protoporphyrinogen
[2] = tested on: hemG knockout E. coli strain; type: cell-based; conditions: acifluorfen and S-3100
[3] = tested on: transgenic soybean plants; assay: S-3100 tolerance of transformed soybean plantlets at five weeks; type: in vivo; design: key to Tolerance score to S-3100 at 5 weeks: 0 for poor tolerance, high damage, low green coloration; 1 for some tolerance, average damage, moderate green coloration; 2 for good tolerance, low damage, high green coloration; conditions: for tolerance to the PPO herbicide in high-throughput screening at five weeks: S-3100, over the constructs with different transit peptides; for Tolerance score to S-3100 at 5 weeks: day four post application
Protocol: The microbial HemY PPO enzymes were expressed in transgenic soybean plants, and the transgenic plants were analyzed for PPO herbicide tolerance. […] For plant transformation, the nucleotide sequences encoding the HemY PPO enzymes were codon optimized for dicot expression. This permitted the side-by-side comparison of the seven different HemY PPO enzymes with thirty-nine different targeting peptides using the same promoter and 3′UTR elements for gene expression
The plant transformation constructs were used to transform soybean excised embryos (germplasm A3555) using A. tumefaciens and standard methods known in the art. Four hundred explants were inoculated for each construct resulting in twelve containers per construct. A sterile PPO herbicide solution was used for herbicide tolerance testing. The herbicide solution consisted of 0.3 g of S-3100 in crop oil concentrate (5.0 mL) and 495 mL of deionized water. This was filtered through a 0.45 micron Nalgene® Rapid-Flow™ Tissue Culture Filter Unit and Surfactant-Free Cellulose Acetate membrane filter unit (VWR, Radnor, Pa., USA). The resulting sterile solution was shaken before application.
At five weeks post-transformation, four of the twelve plant containers per construct were sprayed with two passes of the sterile PPO herbicide solution. The treated plantlets were then enclosed in the container and received at least 15 hours of light exposure post spray each day for four days. At the end of day four post application of S-3100, the treated plantlets were photographed and scored on a visual scale of green coloration (green coloration was representative of healthy photosynthetic plant tissue as compared to photo-bleached tissue) versus damage. The scoring values were 0 for poor tolerance, high damage, low green coloration; 1 for some tolerance, average damage, moderate green coloration; and 2 for good tolerance, low damage, high green coloration. The results of herbicide application of S-3100 at five weeks is presented in Table 5, where n.d. indicates the analysis was not conducted.

Row | Molecule | Km [1] | growth rate of hemG knockout E. coli strain in presence of PPO herbicide [2] | tolerance to acifluorfen and S-3100 compared with strain containing R2N30 or R2N40 [2] | tolerance to the PPO herbicide in high-throughput screening at five weeks [3] | Tolerance score to S-3100 at 5 weeks ([3]; targeting peptide TP2) | Tolerance score to S-3100 at 5 weeks ([3]; targeting peptide TP5) | Tolerance score to S-3100 at 5 weeks ([3]; targeting peptide TP8) | Tolerance score to S-3100 at 5 weeks ([3]; targeting peptide TP10) | Tolerance score to S-3100 at 5 weeks ([3]; targeting peptide TP12) | Tolerance score to S-3100 at 5 weeks ([3]; targeting peptide TP14) | Tolerance score to S-3100 at 5 weeks ([3]; targeting peptide TP18) | Tolerance score to S-3100 at 5 weeks ([3]; targeting peptide TP19) | Tolerance score to S-3100 at 5 weeks ([3]; targeting peptide TP21) | Tolerance score to S-3100 at 5 weeks ([3]; targeting peptide TP22) | Tolerance score to S-3100 at 5 weeks ([3]; targeting peptide TP23) | Tolerance score to S-3100 at 5 weeks ([3]; targeting peptide TP24) | Tolerance score to S-3100 at 5 weeks ([3]; targeting peptide TP27) | Tolerance score to S-3100 at 5 weeks ([3]; targeting peptide TP28) | Tolerance score to S-3100 at 5 weeks ([3]; targeting peptide TP29) | Tolerance score to S-3100 at 5 weeks ([3]; targeting peptide TP30) | other results
1 | B1 | 2.8 µM | slower | much better | did not provide tolerance | 0 | 0 | 1 | 0 | 1 | 0 | 1 | 1 | 1 | 0 | 1 | 0 | 0 | 0 | 0 | 0 | Tolerance score to S-3100 at 5 weeks ([3]; targeting peptide TP9): 1; Tolerance score to S-3100 at 5 weeks ([3]; targeting peptide TP13): 0; Tolerance score to S-3100 at 5 weeks ([3]; targeting peptide TP16): 0; Tolerance score to S-3100 at 5 weeks ([3]; targeting peptide TP20): 0; Tolerance score to S-3100 at 5 weeks ([3]; targeting peptide TP31): 0; Tolerance score to S-3100 at 5 weeks ([3]; targeting peptide TP32): 0; Tolerance score to S-3100 at 5 weeks ([3]; targeting peptide TP33): 0
2 | B2 | 0.4 µM | slower | much better | did not provide tolerance | 0 | 0 | 1 | 1 | 0 | 1 | 1 | 1 | 0 | 0 | 0 | 0 | 0 | 1 | 0 | 0 | Tolerance score to S-3100 at 5 weeks ([3]; targeting peptide TP1): 0; Tolerance score to S-3100 at 5 weeks ([3]; targeting peptide TP3): 0; Tolerance score to S-3100 at 5 weeks ([3]; targeting peptide TP4): 0; Tolerance score to S-3100 at 5 weeks ([3]; targeting peptide TP6): 0; Tolerance score to S-3100 at 5 weeks ([3]; targeting peptide TP15): 0; Tolerance score to S-3100 at 5 weeks ([3]; targeting peptide TP17): 0; Tolerance score to S-3100 at 5 weeks ([3]; targeting peptide TP25): 0; Tolerance score to S-3100 at 5 weeks ([3]; targeting peptide TP26): 1; Tolerance score to S-3100 at 5 weeks ([3]; targeting peptide TP31): 1; Tolerance score to S-3100 at 5 weeks ([3]; targeting peptide TP32): 0; Tolerance score to S-3100 at 5 weeks ([3]; targeting peptide TP33): 0; Tolerance score to S-3100 at 5 weeks ([3]; targeting peptide TP36): 0; Tolerance score to S-3100 at 5 weeks ([3]; targeting peptide TP37): 0
